The values that follow come from patent publication US20230382948A1, “DELIVERY OF ENDOTHELIAL CELL-LADEN MICROGEL ELICITS ANGIOGENESIS IN SELF-ASSEMBLING ULTRASHORT PEPTIDE HYDROGELS” (KING ABDULLAH UNIVERSITY OF SCIENCE AND TECHNOLOGY, priority 2020, published 2023).

The data set can be described thus: Transmission electron microscopy of nanofibers. In kind it is physicochemical. Particulars: TEM. As to the method: TEM imaging was performed using a FEI Tecnai G2 Spirit Twin instrument with a 120 kV emission gun. One drop of diluted peptide hydrogel in water was placed on a carbon-coated copper grid that had been treated with glow discharge plasma prior to being used. The drop was kept on the grid for 10 min before being blotted using filter paper. The grid was stained with 2% uranyl acetate for 30 s to get better contrast. The grid was then rinsed in water to remove uranyl excess and dried for at least 1 day before imaging. The average diameter of the nanofibers was measure using hnageJ and Origin software from 100 fibers.

Turning to “Ac-Ile-Val-Cha-Lys-NH2 (IVXK; HELM PEPTIDE1{[ac].I.V.[Cha].K.[am]}$$$$V2.0; SMILES CC[C@H](C)[C@H](NC(C)=O)C(=O)N[C@H](C(=O)N[C@@H](CC1CCCCC1)C(=O)N[C@@H](CCCCN)C(N)=O)C(C)C) [IVZK, self-assembling ultrashort tetrapeptide, Z = cyclohexylalanine, forms hydrogels and microgels]”, the Single-filament thickness result is reported as “around 3 nm”. As for “Ac-Ile-Val-Phe-Lys-NH2 (Ac-IVFK-NH2) [self-assembling ultrashort tetrapeptide, forms hydrogels and microgels]”, the entry is “around 3 nm”.
